Reference: article PMC11476048 (Nature, 2024)

T1: E. aridi E1^BilD (1-507, C417A) (Ensifer aridi TW10, C417A)
T1 chain: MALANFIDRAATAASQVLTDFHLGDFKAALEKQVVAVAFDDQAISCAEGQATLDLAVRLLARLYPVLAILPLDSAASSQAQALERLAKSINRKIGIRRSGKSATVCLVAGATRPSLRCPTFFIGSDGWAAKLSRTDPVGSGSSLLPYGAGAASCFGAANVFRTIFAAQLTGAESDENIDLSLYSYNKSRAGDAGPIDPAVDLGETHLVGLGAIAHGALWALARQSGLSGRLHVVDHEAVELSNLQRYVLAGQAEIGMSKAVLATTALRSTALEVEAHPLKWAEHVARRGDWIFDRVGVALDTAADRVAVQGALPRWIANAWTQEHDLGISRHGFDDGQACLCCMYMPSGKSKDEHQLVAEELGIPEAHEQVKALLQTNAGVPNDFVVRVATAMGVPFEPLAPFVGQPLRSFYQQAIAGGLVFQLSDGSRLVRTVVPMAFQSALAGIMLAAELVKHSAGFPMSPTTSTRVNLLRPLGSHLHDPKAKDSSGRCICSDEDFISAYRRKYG


What was measured:
SEC-MALS = biological target: the molecule itself; test: SEC-MALS
[1] = biological target: T1, E. aridi E1^BilD (1-507, C417A); test: SEC-MALS

binding result [1] | Binder | stoichiometry N (SEC-MALS)
binds | E. aridi E2^BilB (1-181, wild type) (enzyme, Ensifer aridi TW10) MPELQTVDPEVSRAKFDREISRFRPYADAYRMQGCFLIEESFPSAFFIFASPKVKPRVIGAAIEIDFTNYDLRPPSVVFVDPFTRQPIARKDLPLNMLRRPQLPGTPPEMISNLIQQNAVSLTDFIQANSLQDSPFLCMAGVREYHDNPAHSGDPWLLHRGSGEGCLAFILDKIIKYGTGP | 2
binds | E. aridi E2^BilB (1-181) Mutant 1 (F36R/I48A/I59K/F83E) (enzyme, Ensifer aridi TW10) MPELQTVDPEVSRAKFDREISRFRPYADAYRMQGCRLIEESFPSAFFAFASPKVKPRVKGAAIEIDFTNYDLRPPSVVFVDPETRQPIARKDLPLNMLRRPQLPGTPPEMISNLIQQNAVSLTDFIQANSLQDSPFLCMAGVREYHDNPAHSGDPWLLHRGSGEGCLAFILDKIIKYGTGP | –
binds | E. aridi E2^BilB (1-181) Mutant 2 (F36R/I38A/F46K/I48A/I59K/F83E) (enzyme, Ensifer aridi TW10) MPELQTVDPEVSRAKFDREISRFRPYADAYRMQGCRLAEESFPSAKFAFASPKVKPRVKGAAIEIDFTNYDLRPPSVVFVDPETRQPIARKDLPLNMLRRPQLPGTPPEMISNLIQQNAVSLTDFIQANSLQDSPFLCMAGVREYHDNPAHSGDPWLLHRGSGEGCLAFILDKIIKYGTGP | –
binds | E. aridi Ubl^BilA (17-97) (domain or fragment, Ensifer aridi TW10) KIEIIVVVNGQPTQVEANPNQPLHVVRTKALENTQNVAQPPDNWEFKDEAGNLLDVDKKIGDFGFANTVTLFLSLKAGVAG | –
